Laboratory results: patent US20110229491A1 (published 2011)

Molecular target: T1, MCM5:YFPC fusion protein (Arabidopsis, UniProt O80786 1-727)
T1 construct: BiFC construct expressed in tobacco leaf epidermal cells; not shown: YFPC: fragment with amino acid residues 155-238 of YFP (plasmid pUC-SPYCE)
T1 sequence (looked up): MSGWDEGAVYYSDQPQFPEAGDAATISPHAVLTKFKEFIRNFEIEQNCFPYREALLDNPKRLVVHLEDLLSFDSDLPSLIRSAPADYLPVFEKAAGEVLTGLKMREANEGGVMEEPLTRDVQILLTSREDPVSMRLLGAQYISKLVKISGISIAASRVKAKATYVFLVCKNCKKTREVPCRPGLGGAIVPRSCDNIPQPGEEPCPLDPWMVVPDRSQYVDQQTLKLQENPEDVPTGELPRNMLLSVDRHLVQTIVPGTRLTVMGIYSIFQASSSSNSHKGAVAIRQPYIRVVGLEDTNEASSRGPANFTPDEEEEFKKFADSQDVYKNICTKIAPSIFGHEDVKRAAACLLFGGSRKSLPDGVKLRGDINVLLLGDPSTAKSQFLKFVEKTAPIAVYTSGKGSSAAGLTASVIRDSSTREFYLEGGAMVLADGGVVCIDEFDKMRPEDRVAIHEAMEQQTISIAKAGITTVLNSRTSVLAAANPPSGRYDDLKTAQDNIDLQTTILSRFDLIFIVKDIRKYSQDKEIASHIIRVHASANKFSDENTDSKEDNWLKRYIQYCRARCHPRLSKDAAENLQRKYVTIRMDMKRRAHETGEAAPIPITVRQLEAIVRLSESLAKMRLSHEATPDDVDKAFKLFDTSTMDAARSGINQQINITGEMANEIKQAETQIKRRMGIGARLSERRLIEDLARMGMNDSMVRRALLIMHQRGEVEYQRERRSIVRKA
Test: BiFC in tobacco leaf epidermal cells
Method: Full-length open reading frames of ETG1 and MCM5 were transferred into the pH7FWG2 destination vector (Karimi et al., 2002) by LR recombination reaction, resulting in ETG1:EGFP and MCM5:EYFP fusion proteins, respectively. BiFC assay was performed as described by Walter et al. (2004). The coding region of ETG1 was amplified with 5′-[…]-3′ (SEQ ID NO:28) and 5′-[…]-3′ (SEQ ID NO:29) primers, and cloned via BamHI-XhoI into the plasmid pUC-SPYNE (Walter et al., 2004), resulting in the plasmid expressed as the ETG1:YFPN fusion protein; the coding region of MCM5 was also obtained with 5′-[…]-3′ (SEQ ID NO:30) and 5′-[…]-3′ (SEQ ID NO:31) primers, and cloned via SpeI-SalI into the plasmid pUC-SPYCE (Walter et al., 2004) to give rise to the plasmid expressed as the MCM5:YFPC fusion protein.
The Agrobacterium strains containing both BiFC constructs were co-infiltrated into tobacco leaves. Epidermal cell layer of tobacco leaves were assayed for fluorescence using confocal laser scanning microscope (Zeiss) two to four days after infiltration. […] As expected, no fluorescence was detected when any combination with empty vectors was introduced into tobacco cells (FIG. 5, Panel C; ETG1-YFPN and YFPC, YFPN and MCM5-YFPC).

binding result: binds
B1: ETG1:YFPN fusion protein (other, UniProt Q501D5 1-589, looked up)
chain: MGGPAYDCLTNPLGAVRFSFVNALSSGYDPASSVGKDWGVVDLFRHYFSDESAISQVPILDSSSIKWVQPKTLVRFRGMIQDMLGNEFYAGAYKDDSTWRTNKYSDVSQFPEGSSTEIQVWERRLLYCVPVPGKNQWTECSSQELKNRFLDLTGQNREKRVRVDEEMTDSMDSSTLEAGRNGSPFKKMKVGEATSSASESQVPQTSGIPPATSADSLPCLVKIYDSPESDLKLNDVVEFLGVLTFDPIVMMDTDTLDENSDALSEAESVQMPSGKVPRLHCLIHRKLETQHFLHGSSLLPEPKSPQIFKEIRESLMKYLTGLLGNDHIAAQFLLLHLLSKVHGRVDNVAVGKLSLNLIHLNKESMSIFGTQLSGALKSLLPFTQSIPLTIEYLNTASFGPKKDYGINRLMPGVLQIADGTHLILDETELQPGTLNSVGVENANLLKNLLECQKVEYDFQYYKMEMATDVQMLIFSEGKSNIMPADLVLPLQPSQVNSLEVITPETAETWRCYLATCKSLSHSIGQELQQVVENDLVAARQTDRSLGSQDLSRLLTMARMMSVSYGETTLSLEHWQMVLELERLRKERLK
notes: range 1-589;range 1-154; BiFC construct expressed in tobacco leaf epidermal cells; not shown: YFPN: fragment with amino acid residues 1-154 of YFP (plasmid pUC-SPYNE)
